Source: patent publication US20240018243A1 (NOVOMAB BIOPHARMACEUTICALS, published 2024)
Blank lines part the entries; values can stand above or below the molecule they belong to.

Assays:
[1] = target: monkey CTLA4 on expressing cells (monkey); assay: cell ELISA on monkey CTLA4 expressing cells, goat anti-human IgG-HRP, OD450
[2] = target: Human CTLA4-FC recombinant protein (human); assay: competition ELISA, human CTLA4-FC coated, blocked ligand CD80-FC-HIS, anti-HIS-HRP, OD450
[3] = target: T1, Human CTLA4-His recombinant protein (human, UniProt P16410 36-162); assay: OCTET (BLI), antibody on protein A biosensor, CTLA4-HIS in solution
T1 construct: also called CTLA4-HIS (Sino Biological); CTLA4 recombinant protein; not shown: His tag
T1 sequence (looked up): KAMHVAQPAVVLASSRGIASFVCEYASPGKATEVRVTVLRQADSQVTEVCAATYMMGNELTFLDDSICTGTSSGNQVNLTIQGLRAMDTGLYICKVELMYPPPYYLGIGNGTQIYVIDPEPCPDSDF
Description: The affinity constant KD of the antibody to CTLA4 was determined using OCTET. Firstly, the protein A biosensor was used to immobilize the antibody to be detected, and the biosensors containing different antibodies were placed in the CTLA4-HIS diluent with the same concentration (Sino Biological) for binding for 4 min. The biosensor was then placed in the PBS for 400 s. The affinity constant KD of the antibody was analyzed by OCTET analysis software, KD is kd/ka.

- EC50 [1]: 799 µg/mL
Molecule: Isotype control (antibody)

- IC50 [2]: 43.6 nM
Molecule: Isotype (antibody)

- Kd [3]: 13.9 nM
- koff [3]: 0.000481 s⁻¹
- kon [3]: 34500 M⁻¹ s⁻¹
B1: HCA14-KH (Fc fusion)
chain 1: ESKYGPPCPPCPAPEFLGGPSVFLFPPKPKDTLMISRTPEVTCVVVDVSQEDPEVQFNWYVDGVEVHNAKTKPREEQFNSTYRVVSVLTVLHQDWLNGKEYKCKVSNKGLPSSIEKTISKAKGQPREPQVYTLPPCQEEMTKNQVSLWCLVKGFYPSDIAVEWESNGQPENNYKTTPPVLDSDGSFFLYSRLTVDKSRWQEGNVFSCSVMHEALHNHYTQKSLSLSLGK
chain 2: EVQLLESGGGLVQPGGSLRLSCAASGSIFSINHMAWYRQAPGKQRELVAGVNSRGTTNYVDSVKGRFTISRDNSKNTLYLQMNSLRAEDTAVYYCRALGGAVAAWGQGTLVTVSSGGGGSGGGGSGGGGSESKYGPPCPPCPAPEFLGGPSVFLFPPKPKDTLMISRTPEVTCVVVDVSQEDPEVQFNWYVDGVEVHNAKTKPREEQFNSTYRVVSVLTVLHQDWLNGKEYKCKVSNKGLPSSIEKTISKAKGQPREPQVCTLPPSQEEMTKNQVSLSCAVKGFYPSDIAVEWESNGQPENNYKTTPPVLDSDGSFFLVSRLTVDKSRWQEGNVFSCSVMHEALHNHYTQKSLSLSLGK
notes: also called HCA14 -KB; monovalent antibody
